Laboratory results: patent US20250250357A1 (NANJING ZAIMING PHARMACEUTICAL, published 2025)

T1: human MSLN-R1-his protein (human, UniProt Q13421 296-390)
T1 construct: Region 1 of human mesothelin, made in HEK293E cells, His-tagged; also called human MSLN-R1 protein; hMSLN-R1-his; not shown: His tag
T1 chain: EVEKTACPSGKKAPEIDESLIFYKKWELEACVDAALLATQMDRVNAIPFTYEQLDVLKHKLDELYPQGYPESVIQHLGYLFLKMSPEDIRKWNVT


Experiments:
[1] = target: T1, human MSLN-R1-his protein; experiment: ELISA on coated MSLN-R1; antibody 0.001 nM
Description: (§1) The plate was sealed with a plastic film and incubated at 4° C. overnight. The next day, the plate was washed twice with PBST, and a blocking buffer [PBS+2% (w/w) BSA] was added for blocking at room temperature for 2 h. The blocking buffer was discarded, and a chimeric antibody or negative control antibody serially diluted from 100 nM was added at 50 μL/well. After incubation at 37° C. for 2 h, the plate was washed 3 times with PBST. […] After incubation at 37° C. for 2 h, the plate was washed 5 times with PBST. A TMB substrate was added at 50 μL/well for incubation at room temperature for 5-10 min, and then a stop solution (1.0 N HCl) was added at 50 μL/well.

[2] = target: T1, human MSLN-R1-his protein; experiment: ELISA on coated MSLN-R1; antibody 10 nM
Description: as §1

[3] = target: T2, human MSLN-R2-his protein (human, UniProt Q13421 391-486); experiment: ELISA on coated MSLN-R2; antibody 0.0001 nM
T2 construct: Region 2 of human mesothelin, made in HEK293E cells, His-tagged; also called human MSLN-R2 protein; hMSLN-R2-his; not shown: His tag

[4] = target: T3, human MSLN-R3-his protein (human, UniProt Q13421 487-598); experiment: ELISA on coated MSLN-R3; antibody 0.1 nM
T3 construct: Region 3 of human mesothelin, made in HEK293E cells, His-tagged; also called human MSLN-R3 protein; hMSLN-R3-his; not shown: His tag

[5] = target: T3, human MSLN-R3-his protein; experiment: ELISA on coated MSLN-R3; antibody 0.01 nM
[6] = target: T2, human MSLN-R2-his protein; experiment: ELISA on coated MSLN-R2; antibody 100 nM
[7] = target: T2, human MSLN-R2-his protein; experiment: ELISA on coated MSLN-R2; antibody 0.1 nM
Description: as §1

[8] = target: T1, human MSLN-R1-his protein; experiment: ELISA on coated MSLN-R1; antibody 1 nM
Description: as §1

[9] = target: T1, human MSLN-R1-his protein; experiment: ELISA on coated MSLN-R1; antibody 0.01 nM
Description: as §1

[10] = target: T3, human MSLN-R3-his protein; experiment: ELISA on coated MSLN-R3; antibody 1 nM
Description: as §1

[11] = target: T1, human MSLN-R1-his protein; experiment: ELISA on coated MSLN-R1; antibody 0.1 nM
[12] = target: T3, human MSLN-R3-his protein; experiment: ELISA on coated MSLN-R3; antibody 10 nM
Description: as §1

[13] = target: T1, human MSLN-R1-his protein; experiment: ELISA on coated MSLN-R1; antibody 100 nM
[14] = target: T1, human MSLN-R1-his protein; experiment: ELISA on coated MSLN-R1; no antibody (blank)
Description: as §1

[15] = target: T2, human MSLN-R2-his protein; experiment: ELISA on coated MSLN-R2; antibody 10 nM
[16] = target: T2, human MSLN-R2-his protein; experiment: ELISA on coated MSLN-R2; antibody 0.01 nM
Description: as §1

[17] = target: T1, human MSLN-R1-his protein; experiment: ELISA on coated MSLN-R1; antibody 0.0001 nM
Description: as §1

[18] = target: T2, human MSLN-R2-his protein; experiment: ELISA on coated MSLN-R2; no antibody (blank)
[19] = target: T3, human MSLN-R3-his protein; experiment: ELISA on coated MSLN-R3; no antibody (blank)
[20] = target: T3, human MSLN-R3-his protein; experiment: ELISA on coated MSLN-R3; antibody 100 nM
Description: as §1

[21] = target: T3, human MSLN-R3-his protein; experiment: ELISA on coated MSLN-R3; antibody 0.001 nM
[22] = target: T2, human MSLN-R2-his protein; experiment: ELISA on coated MSLN-R2; antibody 1 nM
Description: as §1

[23] = target: T3, human MSLN-R3-his protein; experiment: ELISA on coated MSLN-R3; antibody 0.0001 nM
[24] = target: T2, human MSLN-R2-his protein; experiment: ELISA on coated MSLN-R2; antibody 0.001 nM
Description: as §1

T3 sequence (Q13421 495-606): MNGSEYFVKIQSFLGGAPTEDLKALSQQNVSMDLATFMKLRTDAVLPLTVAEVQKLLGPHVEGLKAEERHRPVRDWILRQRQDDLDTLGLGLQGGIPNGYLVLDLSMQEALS
T2 sequence (Q13421 other isoform, or with tags, fused parts or gaps): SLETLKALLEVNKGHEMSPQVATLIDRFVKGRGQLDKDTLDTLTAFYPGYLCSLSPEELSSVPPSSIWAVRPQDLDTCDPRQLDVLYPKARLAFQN

Binder	OD450 [1] [OD450]	OD450 [2] [OD450]	OD450 [3] [OD450]	OD450 [4] [OD450]	OD450 [5] [OD450]	OD450 [6] [OD450]	OD450 [7] [OD450]	OD450 [8] [OD450]	OD450 [9] [OD450]	OD450 [10] [OD450]	OD450 [12] [OD450]	OD450 [15] [OD450]	OD450 [16] [OD450]	OD450 [18] [OD450]	OD450 [19] [OD450]	OD450 [20] [OD450]	OD450 [21] [OD450]	OD450 [22] [OD450]	OD450 [23] [OD450]	OD450 [24] [OD450]	other results
S009-F8-9.16 (antibody, human IgG1, kappa, V domains shown) VH: EVHLQQSGPVLVKPGASVKMSCKASGYTFTDYFMNWVKQSHGKSLEWIGVINPHNGYVNYNQKFQGRATLTVDKSSSTVYMELNSLTSEDSAVYHCARSAESAWFAYWGQRTLVTVSA VL: DVLMTQTPLSLPVSLGDQVSISCRSSQSIVHVKGNTYLEWYLQKPGQSPELLIYKVSNRFSGVPDRFSGGGSGTDFTLKISRVEPEDLGVYYCFQGSHLPYTFGGGTKLEIKR	0.04	0.05	0.04	1.38	0.5	0.07	0.04	0.04	0.04	2.23	2.03	0.05	0.04	0.05	0.03	2.4	0.11	0.04	0.06	0.04	OD450 [11]: 0.04 OD450; OD450 [13]: 0.09 OD450; OD450 [14]: 0.04 OD450; OD450 [17]: 0.04 OD450
Tab106 (YP218, hIgG1) (antibody, V domains shown, also called YP218 human IgG1 antibody) VH: QQQLEESGGGLVKPEGSLTLTCKASGFDLGFYFYACWVRQAPGKGLEWIACIYTAGSGSTYYASWAKGRFTISKASSTTVTLQMTSLAAADTATYFCARSTANTRSTYYLNLWGPGTLVTVSS VL: DVVMTQTPASVSEPVGGTVTIKCQASQRISSYLSWYQQKPGQRPKLLIFGASTLASGVPSRFKGSGSGTEYTLTISDLECADAATYYCQSYAYFDSNNWHAFGGGTEVVVRT	–	–	0.04	1.38	0.52	0.22	0.04	–	–	1.99	1.81	0.06	0.04	0.04	0.04	2.28	0.14	0.04	0.09	0.04	–
S009-F8-4.5 (antibody, human IgG1, kappa, V domains shown) VH: QVQLQQPGAELVKPGASVKLSCKASGYTFTIYWMHWVKQRPGQGLEWIGMIHPNSGNTNYNEKFKSKATLTVDKSSSTAYMQLSSLTSEDSAVYYCSLIHWYFDVWGTGTTVTVSS VL: QIVLTQSPAIMSASPGEKVTMTCSASSSVSYMYWYQQKPGSSPRLLIYDTSNLASGVPVRFSGSGSGTSYSLTISRMEAEDAATYYCQQWSSYPLTFGAGTKLELKR	0.05	0.09	0.05	0.05	0.04	0.08	0.05	0.05	0.05	0.05	0.07	0.06	0.05	0.05	0.06	0.12	0.05	0.05	0.05	0.05	OD450 [11]: 0.05 OD450; OD450 [13]: 0.24 OD450; OD450 [14]: 0.05 OD450; OD450 [17]: 0.05 OD450
S009-F8-8.22 (antibody, human IgG1, kappa, V domains shown) VH: EVQLQQSGPELVKPGASVKMSCKASGYTFTDYIIHWVKQSHGKSLEWIAYIFPNNGGTGYNQKFRGKATLTVNKSSSTAYMELRSLTSEDSAVYYCARWRLRQYFDVWGTGTTVTVSS VL: DIVMTQSQKFMSTIVGDRVSITCKASQNVGTAVAWYQQKPGQSPKLLIYSASNRYTGVPDRFTGSGSGTDFTLTISNMQSEDLADYFCQQYSSYPLTFGGGTKLEIKR	0.16	2.63	0.05	0.04	0.04	0.09	0.04	2.46	0.61	0.05	0.08	0.05	0.04	0.04	0.04	0.15	0.04	0.04	0.04	0.05	OD450 [11]: 1.78 OD450; OD450 [13]: 2.63 OD450; OD450 [14]: 0.06 OD450; OD450 [17]: 0.08 OD450

Continued, in another order:

OD450 [1] [OD450]	OD450 [2] [OD450]	OD450 [3] [OD450]	OD450 [4] [OD450]	OD450 [5] [OD450]	OD450 [6] [OD450]	OD450 [7] [OD450]	OD450 [8] [OD450]	OD450 [9] [OD450]	OD450 [10] [OD450]	OD450 [12] [OD450]	OD450 [15] [OD450]	OD450 [16] [OD450]	OD450 [18] [OD450]	OD450 [19] [OD450]	OD450 [20] [OD450]	OD450 [21] [OD450]	OD450 [22] [OD450]	OD450 [23] [OD450]	OD450 [24] [OD450]	Binder	other results
0.05	1.65	0.05	0.04	0.04	0.05	0.04	0.68	0.05	0.04	0.05	0.05	0.04	0.05	0.05	0.06	0.05	0.04	0.04	0.05	S009-F8-5.15 (antibody, human IgG1, kappa, V domains shown) VH: QVQLQQPGTELVKPGASVKLSCKASGYTFTSYWMHWVKQRPGQGLEWIGHSNPSNGGTNYNEKFKSKATLTVDKSSSTAYMQLSSLTSEDSAVYYCARWVRGSNYEYFDVWGTGTTVTVSS VL: DIVMTQSQKFMSTTVGDRVSIICKASQNVGSAVAWCQQKPGQSPKLLIYSASNRYTGVPDRFTGSGSGTDFTLTISNMQSEDLADYFCQQYSSYPLTFAGGTKLEIKR	OD450 [11]: 0.12 OD450; OD450 [13]: 2.29 OD450; OD450 [14]: 0.05 OD450; OD450 [17]: 0.04 OD450
0.52	2.16	0.04	0.05	0.04	0.15	0.05	2.06	1.18	0.06	0.1	0.07	0.05	0.05	0.05	0.2	0.05	0.05	0.04	0.04	S009-F8-12.13 (antibody, human IgG1, kappa, V domains shown) VH: QVQLQQPGAELVKPGASVKLSCKASGYTFTSYWMHWVKQRPGQGLEWIGMIHPNSGSTNYNEKFKSKATLTVDKSSSTAYMQLSSLTSEDSAVYYCARRTPIITLVGHWYFDVWGTGTTVTVSS VL: DIVMTQSHKFMSTSVGDRVSITCKASQDVGTAVAWYQQKPGQSPKLLIYWASTRHTGVPDRFTGSGSGTDFTLTISNVQSEDLADYFCQQYSSYPLTFGAGTKLELKR	OD450 [11]: 1.97 OD450; OD450 [13]: 2.17 OD450; OD450 [14]: 0.05 OD450; OD450 [17]: 0.32 OD450
